According to US20170119877A1:

Molecular target: murine VISTA (V-domain Ig suppressor of T cell activation) on spleen cells / Ly6C+CD11b+ MDSCs of B6 mice (mouse) (UniProt Q9D659)
Assay: cell-based or functional assay

UniProt Q9D659, sequence (Q9D659 33-308): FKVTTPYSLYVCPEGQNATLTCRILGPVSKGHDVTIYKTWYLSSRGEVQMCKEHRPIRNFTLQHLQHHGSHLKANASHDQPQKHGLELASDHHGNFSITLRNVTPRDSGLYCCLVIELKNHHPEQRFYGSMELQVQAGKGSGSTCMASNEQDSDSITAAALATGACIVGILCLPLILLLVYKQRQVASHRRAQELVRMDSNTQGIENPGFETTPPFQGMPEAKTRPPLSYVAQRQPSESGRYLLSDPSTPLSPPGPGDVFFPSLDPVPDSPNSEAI

blocking of MDSC suppression of B-cell responsiveness (3H-thymidine incorporation, α-CD40 + IL-4 stimulation): 50%
blocking of MDSC suppression of B-cell responsiveness, corrected for control HIg: 55%
blocking of MDSC suppression of B-cell responsiveness, over several independent experiments: 65%
Substance: anti-VISTA mAb (13F3) (antibody)
